From IntAct's records for PubMed 24462684

B1: Mitochondrial import inner membrane translocase subunit TIM50 (Saccharomyces cerevisiae), Q02776 (parent)
chain: MLSILRNSVRLNSRALRVVPSAANTLTSVQASRRLLTSYSSFLQKETKDDKPKSILTDDMLFKAGVDVDEKGQGKNEETSGEGGEDKNEPSSKSEKSRRKRQTSTDIKREKYANWFYIFSLSALTGTAIYMARDWEPQESEELKKDIDNGYTLSLMYKRFKARFNSMFTYFQEPPFPDLLPPPPPPPYQRPLTLVITLEDFLVHSEWSQKHGWRTAKRPGADYFLGYLSQYYEIVLFSSNYMMYSDKIAEKLDPIHAFVSYNLFKEHCVYKDGVHIKDLSKLNRDLSKVIIIDTDPNSYKLQPENAIPMEPWNGEADDKLVRLIPFLEYLATQQTKDVRPILNSFEDKKNLAEEFDHRVKKLKDKFYGDHKSGGNWAMTALGLGNSLGGSTKFPLDLIHEEGQKNYLMFMKMIEEEKEKIRIQQEQMGGQTFTLKDYVEGNLPSPEEQMKIQLEKQKEVDALFEEEKKKKKIAESK
B2: ATP synthase subunit 9, mitochondrial (Neurospora crassa (strain ATCC 24698 / 74-OR23-1A / CBS 708.71 / DSM 1257 / FGSC 987)), P00842 (parent)
chain: MASTRVLASRLASQMAASAKVARPAVRVAQVSKRTIQTGSPLQTLKRTQMTSIVNATTRQAFQKRAYSSEIAQAMVEVSKNLGMGSAAIGLTGAGIGIGLVFAALLNGVARNPALRGQLFSYAILGFAFVEAIGLFDLMVALMAKFT
partner: B1 chain

Variants of: B1
Details: with atp9_neucr oli

| Variant | effect of a mutation on the interaction |
| --- | --- |
| MLSILRNSVRLNSRALRVVPSAANTLTSVQASRRLLTSYSSFLQKETKDDKPKSILTDDMLFKAGVDVDEKGQGKNEETSGEGGEDKNEPSSKSEKSRRKRQTSTDIKREKYANWFYIFSLSALTGTAIYMARDWEPQESEELKKDIDNGYTLSLMYKRFKARFNSMFTYFQEPPFPDLLPPPPPPPYQRPLTLVITLEDFLVHSEWSQKHGWRTAKRPGADYFLGYLSQYYEIVLFSSNYMMYSDKIAEKLDPIHAFVSYNLFKEHCVYKDGVHIKDLSKLNRDLSKVIIIDTDPNSYKLQPENAIPMEPWNGEADDKLVRLIPFLEYLATQQTKDVRPILNSFEDKKNLAEEFDHRVKKLKDKFYGDHKSGGNWAMTALGLGNSLGGSTKFPLDLIHEEGQKNYLMFMKMIEEEKEKIRIQQEQMGGQTFTNKDYVEGNLPSPEEQMKIQLEKQKEVDALFEEEKKKKKIAESK [L434N] | decreasing interaction |

Variants of: B1
Details: with atp9_neucr oli
Remark: another data set of the same source

| Variant | effect of a mutation on the interaction |
| --- | --- |
| MLSILRNSVRLNSRALRVVPSAANTLTSVQASRRLLTSYSSFLQKETKDDKPKSILTDDMLFKAGVDVDEKGQGKNEETSGEGGEDKNEPSSKSEKSRRKRQTSTDIKREKYANWFYIFSLSALTGTAIYMARDWEPQESEELKKDIDNGYTLSLMYKRFKARFNSMFTYFQEPPFPDLLPPPPPPPYQRPLTLVITLEDFLVHSEWSQKHGWRTAKRPGADYFLGYLSQYYEIVLFSSNYMMYSDKIAEKLDPIHAFVSYNLFKEHCVYKDGVHIKDLSKLNRDLSKVIIIDTDPNSYKLQPENAIPMEPWNGEADDKLVRLIPFLEYLATQQTKDVRPILNSFEDKKNLAEEFDHRVKKLKDKFYGDHKSGGNWAMTALGLGNSLGGSTKFPLDLIHEEGQKNYLMFMKMIEAEKEKIRIQQEQMGGQTFTLKDYVEGNLPSPEEQMKIQLEKQKEVDALFEEEKKKKKIAESK [E415A] | decreasing interaction |

Variants of: B1
Details: with atp9_neucr oli
Remark: another data set of the same source

| Variant | effect of a mutation on the interaction |
| --- | --- |
| MLSILRNSVRLNSRALRVVPSAANTLTSVQASRRLLTSYSSFLQKETKDDKPKSILTDDMLFKAGVDVDEKGQGKNEETSGEGGEDKNEPSSKSEKSRRKRQTSTDIKREKYANWFYIFSLSALTGTAIYMARDWEPQESEELKKDIDNGYTLSLMYKRFKARFNSMFTYFQEPPFPDLLPPPPPPPYQRPLTLVITLEDFLVHSEWSQKHGWRTAKRPGADYFLGYLSQYYEIVLFSSNYMMYSDKIAEKLDPIHAFVSYNLFKEHCVYKDGVHIKDLSKLNRDLSKVIIIDTDPNSYKLQPENAIPMEPWNGEADDKLVRLIPFLEYLATQQTKDVRPILNSFEDKKNLAEEFDHRVKKLKDKFYGDHKSGGNWAMTALGLGNSLGGSTKFPLDLIHEEGQKNYLMFMKMIAEEKEKIRIQQEQMGGQTFTLKDYVEGNLPSPEEQMKIQLEKQKEVDALFEEEKKKKKIAESK [E414A] | decreasing interaction |

Variants of: B1
Details: with atp9_neucr oli
Remark: another data set of the same source

| Variant | effect of a mutation on the interaction |
| --- | --- |
| MLSILRNSVRLNSRALRVVPSAANTLTSVQASRRLLTSYSSFLQKETKDDKPKSILTDDMLFKAGVDVDEKGQGKNEETSGEGGEDKNEPSSKSEKSRRKRQTSTDIKREKYANWFYIFSLSALTGTAIYMARDWEPQESEELKKDIDNGYTLSLMYKRFKARFNSMFTYFQEPPFPDLLPPPPPPPYQRPLTLVITLEDFLVHSEWSQKHGWRTAKRPGADYFLGYLSQYYEIVLFSSNYMMYSDKIAEKLDPIHAFVSYNLFKEHCVYKDGVHIKDLSKLNRDLSKVIIIDTDPNSYKLQPENAIPMEPWNGEADDKLVRLIPFLEYLATQQTKDVRPILNSFEDKKNLAEEFDHRVKKLKDKFYGDHKSGGNWAMTALGLGNSLGGSTKFPLDLIHEEGQKNYLMFMKMAEEEKEKIRIQQEQMGGQTFTLKAYVEGNLPSPEEQMKIQLEKQKEVDALFEEEKKKKKIAESK [I413A;D436A] | disrupting interaction |

Variants of: B2
Details: with tim50_yeast TIM50, Q02776

| Variant | effect of a mutation on the interaction |
| --- | --- |
| L7Q;A12Q;A16Q;A17Q | disrupting interaction |
